Test results as given in patent US20250297032A1 (CONCEPT TO MEDICINE BIOTECH, published 2025).
Residue numbers refer to the chain shown, from its start.

T1: human FAPα-His tag (Sino biological) (human, UniProt Q12884 26-760)
T1 construct: Bought protein; also called human FAPα-His protein; not shown: His tag
T1 sequence (looked up): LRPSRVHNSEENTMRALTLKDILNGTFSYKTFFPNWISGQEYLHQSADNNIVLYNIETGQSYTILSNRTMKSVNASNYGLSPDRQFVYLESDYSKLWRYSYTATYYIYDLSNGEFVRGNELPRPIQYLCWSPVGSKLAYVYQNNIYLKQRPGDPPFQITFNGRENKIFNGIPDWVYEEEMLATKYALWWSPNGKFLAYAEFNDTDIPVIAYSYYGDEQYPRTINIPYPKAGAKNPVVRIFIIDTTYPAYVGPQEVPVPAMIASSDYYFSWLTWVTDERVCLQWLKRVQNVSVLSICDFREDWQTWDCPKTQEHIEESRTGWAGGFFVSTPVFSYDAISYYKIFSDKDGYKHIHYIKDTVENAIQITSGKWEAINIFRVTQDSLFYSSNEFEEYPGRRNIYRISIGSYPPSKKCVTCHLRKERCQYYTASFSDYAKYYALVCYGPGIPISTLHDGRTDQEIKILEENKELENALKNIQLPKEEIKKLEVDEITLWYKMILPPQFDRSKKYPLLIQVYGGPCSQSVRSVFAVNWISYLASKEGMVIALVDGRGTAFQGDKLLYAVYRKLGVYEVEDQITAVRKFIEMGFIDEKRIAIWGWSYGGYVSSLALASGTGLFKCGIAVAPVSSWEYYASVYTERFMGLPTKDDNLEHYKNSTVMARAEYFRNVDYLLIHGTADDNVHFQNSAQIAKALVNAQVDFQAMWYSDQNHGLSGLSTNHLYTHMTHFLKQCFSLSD

T2: human FAPα on CHO-K1-hFAPα cells (human, UniProt Q12884 1-760)
T2 construct: whole, on cells; also called cell-surface FAPα
T2 sequence (looked up): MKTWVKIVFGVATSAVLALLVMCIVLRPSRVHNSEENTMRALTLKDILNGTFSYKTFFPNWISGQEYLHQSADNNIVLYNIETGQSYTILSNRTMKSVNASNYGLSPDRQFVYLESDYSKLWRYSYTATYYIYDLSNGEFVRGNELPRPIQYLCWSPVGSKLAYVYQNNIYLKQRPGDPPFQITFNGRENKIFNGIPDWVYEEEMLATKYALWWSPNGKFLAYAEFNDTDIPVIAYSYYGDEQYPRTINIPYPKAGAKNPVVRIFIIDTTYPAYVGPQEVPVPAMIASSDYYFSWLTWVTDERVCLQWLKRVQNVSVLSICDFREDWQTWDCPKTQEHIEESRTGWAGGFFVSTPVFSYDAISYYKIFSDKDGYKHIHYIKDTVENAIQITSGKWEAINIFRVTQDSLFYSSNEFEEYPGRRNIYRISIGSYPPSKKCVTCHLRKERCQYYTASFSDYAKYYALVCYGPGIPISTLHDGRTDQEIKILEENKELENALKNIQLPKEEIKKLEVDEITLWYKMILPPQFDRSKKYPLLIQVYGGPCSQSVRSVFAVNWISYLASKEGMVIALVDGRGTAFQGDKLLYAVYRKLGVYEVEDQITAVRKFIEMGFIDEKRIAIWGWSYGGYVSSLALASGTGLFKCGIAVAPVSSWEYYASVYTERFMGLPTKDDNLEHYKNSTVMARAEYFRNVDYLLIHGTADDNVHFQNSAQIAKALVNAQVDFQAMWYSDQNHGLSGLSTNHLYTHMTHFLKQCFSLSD

B1: G14 (antibody, V domains shown)
VH: QVQLLESGGGVVQPGRSLRLSCAASGFTFSSYAMHWVRQAPGKGLEWVAFISHDGNRNSYADSVRGRFTISRDNSKNTLYLQMNSLRAEDTAVYYCARDLGYYNGFSYWGQGTLVTVSA
VL: DIVMTQSPSSVSASVGDRVTITCRASQGISSWLAWYQQKPGKAPKLLIYAASSLQSGVPSRFSGSGSGTDFTLTISSLQPEDFATYYCQQANSFPPTFGPGTKVDIK
notes: Full human antibody from a Fab phage library; Tested as a mAb (detected with anti-human IgG, captured on Protein A); also called FAP-G14; FAP-G14-Bio (biotin-conjugated form)
B2: J40 (antibody, V domains shown)
VH: EVQLLESGGGLVQPGGSLRLSCAASGFTFSSYAMSWVRQAPGKGLEWVSAISGSGGSTYYADSVKGRFTISRDNSKNTLYLQMNSLRTDDTAVYYCARDLTTSTGWESWGQGTLVTVSA
VL: B1 VL with D1N, V3Q, P100Q, V104L, D105E
notes: Tested as a mAb; also called FAP-J40; FAP-J40-Bio (biotin-conjugated form)
B3: I30 (antibody, V domains shown)
VH: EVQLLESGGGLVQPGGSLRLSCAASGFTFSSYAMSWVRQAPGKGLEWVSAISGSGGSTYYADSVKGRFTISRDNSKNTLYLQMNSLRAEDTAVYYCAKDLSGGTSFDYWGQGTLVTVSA
VL: B1 VL with D1A, V3R, M4L, P100G, D105E
notes: Tested as a mAb; also called 130; FAP-I30
B4: I37 (antibody, V domains shown)
VH: QLQLVESGGGLVQPGGSLRLSCAASGFTFSSYAMSWVRQAPGKGLEWVSAISGSGGSTYYADSVKGRFTISRDNSKNTLYLQMNSLRAEDTAVYYCARDKPWGGSFDYWGQGTLVTVSA
VL: B1 VL with V3Q, M4L, V11L, P96V
notes: Tested as a mAb; also called FAP-I37

These binders were tested against T1, human FAPα-His tag (Sino biological) (assay: competitive ELISA on coated human FAPα; biotinylated mAb alone, no competing Ab (row '0')).
Experimental: (§1) Briefly, microtiter plates were coated with human FAPα proteins at 0.5 μg/ml in PBS, 100 μl/well at 4° C. overnight, then blocked with 150 μl/well of 1% BSA. Serial dilutions of chimeric antibodies as well as biotin-conjugated reference mAb were added to each well and incubated for 1 hour at RT. The plates were washed with PBS/Tween and then incubate with streptavidin-HRP for 15 mins at RT. After washing, the plates were developed with TMB substrate and analyzed by spectrophotometer at OD 450 nm. According to the competition ability to reference mAbs (Benchmark, or “BMK”), all tested FAPα mAbs binds to the similar epitope as shown in Table 5.

Point of comparison: B1, “OD 450 nm” value 2.15 OD 450 nm. Against it:
- B2 — lower, 1.2 OD 450 nm
- B3 — lower, 1.49 OD 450 nm
- B4 — lower, 1.72 OD 450 nm

What follows are binders tested against T1, human FAPα-His tag (Sino biological) (assay: competitive ELISA on coated human FAPα; competitor (detected): FAP-I37-Bio).
Experimental: (§2) Competitive ELISA was carried out to classify the FAPα mAbs based on the binding epitope to human FAPα.
as §1

Point of comparison: B3, “OD 450 nm” value 0.219 OD 450 nm. Against it:
- B1 — higher, 0.457 OD 450 nm
- B2 — higher, 0.435 OD 450 nm
- B4 — higher, 0.602 OD 450 nm

Each binder was assayed against T1, human FAPα-His tag (Sino biological) (assay: SPR (Biacore T200), mAb captured on Protein A chip, human FAPα-His as analyte).
Experimental: The binding of the tested antibodies to recombinant FAPα protein (human FAPα-his tag) was tested with Biacore using a capture method. The mAbs were captured using Protein A chip. A serial dilution of human FAPα-his tag protein was injected over captured antibody for 3 mins at a flow rate of 30 μl/min. The antigen was allowed to dissociate for 800s. All the experiments were carried out on a Biacore T200. Data analysis was carried out using the Biacore T200 evaluation software.

Point of comparison: B3, Kd 0.454 nM. Against it:
- B1 — within 1.5-fold, 0.522 nM
- B2 — 2.2-fold higher, 1.01 nM
- B4 — 1.9-fold higher, 0.855 nM

Point of comparison: B3, koff 6.2e-05 s⁻¹. Against it:
- B1 — within 1.5-fold, 6.24e-05 s⁻¹
- B2 — within 1.5-fold, 7.31e-05 s⁻¹
- B4 — 2.5-fold higher, 0.000154 s⁻¹

Point of comparison: B3, kon 137000 M⁻¹ s⁻¹. Against it:
- B1 — within 1.5-fold, 120000 M⁻¹ s⁻¹
- B2 — 1.9-fold lower, 72200 M⁻¹ s⁻¹
- B4 — within 1.5-fold, 180000 M⁻¹ s⁻¹

The binders below were run against T1, human FAPα-His tag (Sino biological) (assay: competitive ELISA on coated human FAPα; competitor (detected): FAP-G14-Bio).
Experimental: as §2, §1

Point of comparison: B4, “OD 450 nm” value 0.224 OD 450 nm. Against it:
- B1 — lower, 0.209 OD 450 nm
- B2 — lower, 0.167 OD 450 nm
- B3 — lower, 0.129 OD 450 nm

The binders below were run against T2, human FAPα on CHO-K1-hFAPα cells (assay: flow cytometry on CHO-K1-hFAPα cells).
Experimental: To evaluate the cell-based binding property to human FAPα, the tested antibodies were analyzed for their binding to CHO-K1-hFAPα by FACS. A total number of 1×10⁵ CHO-K1-hFAPα cells in each well were incubated with 4-fold serial diluted antibodies starting from 3 μg/ml for 30 minutes at 4° C. in FACS buffer. After wash by FACS buffer, PE conjugated-anti-human IgG antibody was added to each well and incubated at 4° C. for 30 minutes. After wash, MFI of PE was evaluated by MACSQuant Analyzer 16.

Point of comparison: B4, EC50 0.057 ng/mL. Against it:
- B1 — within 1.5-fold, 0.073 ng/mL
- B2 — 2.3-fold lower, 0.025 ng/mL
- B3 — within 1.5-fold, 0.08 ng/mL

Each binder was assayed against T1, human FAPα-His tag (Sino biological) (assay: competitive ELISA on coated human FAPα; competitor (detected): FAP-I30-Bio).
Experimental: as §1

Point of comparison: B3, “OD 450 nm” value 0.143 OD 450 nm. Against it:
- B1 — higher, 0.241 OD 450 nm
- B2 — higher, 0.218 OD 450 nm
- B4 — higher, 0.239 OD 450 nm

The binders below were run against T1, human FAPα-His tag (Sino biological) (assay: competitive ELISA on coated human FAPα; competitor (detected): FAPα (BMK)-Bio).
Experimental: as §1

Point of comparison: B1, “OD 450 nm” value 0.399 OD 450 nm. Against it:
- B2 — lower, 0.343 OD 450 nm
- B3 — lower, 0.151 OD 450 nm
- B4 — higher, 0.46 OD 450 nm

What follows are binders tested against T1, human FAPα-His tag (Sino biological) (assay: competitive ELISA on coated human FAPα; competitor (detected): FAP-G52-Bio).
Experimental: as §1

Point of comparison: B2, “OD 450 nm” value 0.206 OD 450 nm. Against it:
- B1 — lower, 0.195 OD 450 nm
- B3 — lower, 0.146 OD 450 nm
- B4 — lower, 0.18 OD 450 nm
